Data taken from PMC2191965 (The Journal of Experimental Medicine, 1995).

Experiments:
[1] = target: T1, I-As (Mus musculus, UniProt P06345+P14437); format: binding; settings: purified I-As; compared with ROIV or with wild-type peptide
T1 sequence (P14437 1-233): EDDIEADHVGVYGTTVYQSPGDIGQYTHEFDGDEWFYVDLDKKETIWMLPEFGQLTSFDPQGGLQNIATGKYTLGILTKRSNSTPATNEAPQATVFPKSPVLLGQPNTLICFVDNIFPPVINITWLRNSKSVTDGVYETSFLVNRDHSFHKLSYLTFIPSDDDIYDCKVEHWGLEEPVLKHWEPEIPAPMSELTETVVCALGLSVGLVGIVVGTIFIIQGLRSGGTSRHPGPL
T1 sequence (P06345 28-263): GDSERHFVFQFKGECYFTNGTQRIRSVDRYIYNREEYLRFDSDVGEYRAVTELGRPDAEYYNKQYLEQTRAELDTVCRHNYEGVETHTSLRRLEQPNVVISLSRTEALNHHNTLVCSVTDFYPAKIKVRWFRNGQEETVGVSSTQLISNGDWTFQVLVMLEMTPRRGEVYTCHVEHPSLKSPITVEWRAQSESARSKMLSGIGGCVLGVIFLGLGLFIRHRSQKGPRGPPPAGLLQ

[2] = target: T2, I-Ab (Mus musculus, UniProt P14434+P14483); settings: purified I-Ab; compared with binding to I-As or with wild-type peptide
T2 sequence (P14434 24-256): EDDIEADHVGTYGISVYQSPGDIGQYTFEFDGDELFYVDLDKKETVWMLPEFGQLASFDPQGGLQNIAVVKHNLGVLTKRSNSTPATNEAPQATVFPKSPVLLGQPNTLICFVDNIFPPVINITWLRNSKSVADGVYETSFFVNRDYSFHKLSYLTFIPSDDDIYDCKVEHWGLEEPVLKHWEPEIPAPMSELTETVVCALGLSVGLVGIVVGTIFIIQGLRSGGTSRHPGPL
T2 sequence (P14483 28-265): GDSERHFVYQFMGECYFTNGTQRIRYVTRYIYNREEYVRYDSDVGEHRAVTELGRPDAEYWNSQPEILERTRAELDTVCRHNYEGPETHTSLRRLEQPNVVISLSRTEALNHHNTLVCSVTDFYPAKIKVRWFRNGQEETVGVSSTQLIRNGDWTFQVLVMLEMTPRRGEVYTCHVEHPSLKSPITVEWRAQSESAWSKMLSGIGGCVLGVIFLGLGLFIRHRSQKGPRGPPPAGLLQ

## myelin basic protein 81-100: I-As-restricted epitope myelin basic protein 81-100 (HPADPGNRPHLIRLFSRDAP; UniProt P04370 81-100, looked up, fragment)
[1]
  Binding to I-As, in words: as well as the ROW
[2]
  Binding to I-Ab, in words: far less affinity
